Columns and labels:
[1] = target: T1, monkey IGF-1R on COS-7 cells (monkey (African green monkey)); experiment: FACS titration on COS-7 cells, 4 C, secondary antibody, MFI; EC50 table inside the plot
T1 construct: whole, on cells; also called monkey native IGF-1R; Cos-7 (monkey IGF1R+)

[2] = target: T2, soluble recombinant human IGF-1R hetero-tetramer with C-terminal 10-His tag (R&D Systems 305-GR-50) (human, UniProt P08069 31-736; P08069 741-932); experiment: SPR Biacore X100, Ln(2)/koff
T2 construct: domain: alpha chain;domain: extracellular domain of the beta chain; Captured on an anti-His antibody chip; also called recombinant soluble human-IGF-1R; h-IGF-1R
Experimental: (§1) The dissociation constants (KD) of the binding of the antibodies on a recombinant soluble human-IGF-1R were defined by the ratio between the dissociation rate (koff) and the association rate (kₒₙ). The kinetic experiments were run on a Biacore X100 device using a CM5 sensor chip activated by a mouse anti-Tag His monoclobnal antibody. Around 12000 RU of antibodies are chemically grafted on the carboxymethyldextan matrix using the amine kit chemistry.
(§2) The experiments were carried out at 25° C. with a flow rate of 30 μl/min using the HBS-EP+ buffer (GE Healthcare) as the running and sample dilution buffer.
The single cycle kinetic scheme was used to define the kinetic parameters of the binding of the anti-IGF-1R antibodies on a soluble recombinant human IGF-1R captured by its two C-terminal 10 Histidine-tag. [0637] 1—A solution of a soluble recombinant version of the human IGF-1R hetero-tetramere: 2a chains and the extracellular domains of 2β chains expressed with an additional C-terminal 10-His tag (R&D Systems catalogue number 305-GR-50) was injected during one minute on the second flowcell at a concentration of 10 μg/ml. […] [0638] 2—After the capture phase, either the running buffer was injected 5 times (90 s each injection) or a growing range of 5 concentrations of one of the six antibodies was injected (90 s each injection) on both flowcells. […]

[3] = target: T3, human IGF-1R, native, on cells (MCF-7, hIGF-1R transfected cells, tumor sections, primary normal cells) (human, UniProt P08069 31-1367); experiment: FACS titration on MCF-7 cells, 4 C, secondary antibody, MFI; EC50 table inside the plot
T3 construct: whole, on cells; also called native IGF-1R; human native IGF-1R

[4] = target: T3, human IGF-1R, native, on cells (MCF-7, …); experiment: cell-based or functional assay
[5] = target: T1, monkey IGF-1R on COS-7 cells; experiment: FACS titration on Cos-7 cells
Experimental: (§3) The binding properties of the humanized variants were evaluated by FACS analyses on the human MCF-7 breast adenocarcinoma cell line and the monkey cell line Cos-7 using increasing antibody concentrations. For that purpose, cells (1×10⁶ cells/ml) were incubated with anti-IGF-1R antibodies for 20 min. at 4° C. in FACS buffer (PBS, 0.1% BSA, 0.01% NaN3). They were then washed 3 times and incubated with the appropriate secondary antibody coupled with Alexa 488 for 20 additional minutes at 4° C. in the dark before being washed 3 times in FACS buffer. The binding of anti-IGF-1R antibodies was immediately performed on viable cells which were identified using propidium iodide (that stains dead cells). The EC₅₀ of binding expressed in molarity (M) was calculated using a nonlinear regression analysis (GraphPad Prims 4.0).

[6] = target: T4, human insulin receptor on cells (IM9 cells, hIR+ transfected cell line) (human, UniProt P06213 28-1382); experiment: FACS titration on NIH 3T3 IR+ cells (human insulin receptor transfected), 4 C, secondary antibody, MFI
T4 construct: whole, on cells; also called human IR

[7] = target: T2, soluble recombinant human IGF-1R …; experiment: SPR Biacore X100, His-captured soluble h-IGF-1R (about 600 RU), mean of 4 experiments
Experimental: as §1, §2
The single cycle kinetic scheme was used to define the kinetic parameters of the binding of the anti-IGF-1R antibodies on a soluble recombinant human IGF-1R captured by its two C-terminal 10 Histidine-tag. [0637] 1—A solution of a soluble recombinant version of the human IGF-1R hetero-tetramere: 2a chains and the extracellular domains of 2β chains expressed with an additional C-terminal 10-His tag (R&D Systems catalogue number 305-GR-50) was injected during one minute on the second flowcell at a concentration of 10 μg/ml. […] [0638] 2—After the capture phase, either the running buffer was injected 5 times (90 s each injection) or a growing range of 5 concentrations of one of the six antibodies was injected (90 s each injection) on both flowcells. At the end of the fifth injection the running buffer was passed during 5 minutes in order to define the dissociation rate. [0639] 3—The surface was then generated with an injection of a 10 mM Glycine, HCl pH 1.5 buffer during 45 s.

[8] = target: T3, human IGF-1R, native, on cells (MCF-7, …); experiment: FACS titration on MCF-7 cells
Experimental: as §3

EC50 [1]: 0.511 nM | half-life of the complex [2]: 2 to 3 h | EC50 [3]: 0.71 nM | % internalization (MCF-7, 10 µg/ml, 4 h) [4]: 87% | ΔMFI (MCF-7, 10 µg/ml, 4 h) [4]: 344 MFI | EC50 [5]: 0.51 nM | Kd [7]: ~0.06 nM | EC50 [8]: 0.709 nM
B1: hz208F2 H026/L024 (antibody, human IgG1, kappa, V domains shown)
VH: QVQLVQSGAEVKKPGASVKMSCKASGYTFTSYYIYWVKQAPGQGLEWLGWIWPGDGSTKYNEKFQGRVTLTADKSSNTAYMFLSSLRSEDTAVYFCASPMITPNYAMDYWGQGTLVTVSS
VL: DIQMTQSPSSLSASVGDRVTISCRASQDISKYLNWYQQKPGKAPKLLIYYTSRLHSGVPSRFSGRGSGTDYSLTISNLQPEDFATYFCQQGSTLPYTFGGGTKVEIKR
notes: also called hz208F2 VH3/VL3; hz208F2 VH3VL3
binding result [6]: no binding (tested: log [M] about -7.2 (about 6e-8 M))

Reference: patent publication US20190202901A1 (PIERRE FABRE MEDICAMENT, published 2019)
